# Source: patent US20250339501A1, “COMPOSITIONS AND METHODS FOR TREATING METABOLIC DISEASE” (The Regents of the University of California, priority 2021, published 2025)
# B1: rDj1: full-length recombinant Dj1 protein; mouse protein (Novus, NBP2-59523) injected in mice, human protein used in HepG2 cells (protein, UniProt Q99LX0 1-189, looked up)
# chain: MASKRALVILAKGAEEMETVIPVDVMRRAGIKVTVAGLAGKDPVQCSRDVMICPDTSLEDAKTQGPYDVVVLPGGNLGAQNLSESPMVKEILKEQESRKGLIAAICAGPTALLAHEVGFGCKVTTHPLAKDKMMNGSHYSYSESRVEKDGLILTSRGPGTSFEFALAIVEALVGKDMANQVKAPLVLKD
# modifications: full-length
# notes: full-length recombinant Dj1 protein; mouse protein (Novus, NBP2-59523) injected in mice, human protein used in HepG2 cells
# Tests used:
# HepG2 cells [1] = assay: OCR/ECAR and mitochondrial ATP production in HepG2 cells; type: cell-based, human
# Protocol: (§1) Mouse myoblast cells (C2C12) were maintained in high glucose DMEM/high, 10% fetal bovine serum with penicillin/streptomycin. pRK5-Dj1-HA plasmid was purchased from Addgene (#29396). Seeded cells were cultured in 6-well plates for 24 hours prior to transfection. Transfections were performed using Lipofectamine 2000 and PLUS reagent according to manufacturer instructions (Invitrogen, Carlsbad, CA). Human HepG2 cells were cultured in DMEM/low media containing 10% fetal bovine serum with penicillin/streptomycin. Mouse AML12 cells were maintained in DMEM/F12, ITS supplement (Gibco, USA), 40 ng/ml dexamethasone, and 10% fetal bovine serum with penicillin/streptomycin. For in vitro experiments, HepG2 cells were treated with or without recombinant human Dj1 protein (Novus, NBC1-18334) in serum-free media containing 25 mM glucose, 200 μM palmitic acid, and 0.25% bovine serum albumin for an indicated time.
# HepG2 cells [2] = assay: Fatty acid oxidation and lipid content in HepG2 cells; type: cell-based, human
# Protocol: as §1
# AMPK signaling is vital for lipid metabolism in the liver (19). […] These findings indicate that Dj1 could enhance lipid metabolism and ameliorate HFD-induced hepatic steatosis. rDj1 was tail-vein injected into mice fed with a chow diet (NC) or high-fat diet (HFD) daily for 5 days. […] Although body weights and fasting blood glucose levels of HFD-fed mice were unchanged during the rDj1 administration, rDj1 indeed enhanced glucose homeostasis and insulin action, as evidenced by improving glucose tolerance tests and insulin tolerance tests, respectively (FIGS. 4K-4M, 4U-4Z).
molecule,measurement,setting,value
B1,mitochondrial ATP production rate,HepG2 cells [1],enhanced
same,oxygen consumption rate/extracellular acidification rate (OCR/ECAR),HepG2 cells [1],enhanced
same,Oil Red O staining (neutral lipids),HepG2 cells [2],reduced
same,fatty acid oxidation,HepG2 cells [2],significantly promoted
same,triacylglycerol (TG) levels,HepG2 cells [2],reduced
